Paper PMC9834240, “Senescent cells perturb intestinal stem cell differentiation through Ptk7 induced noncanonical Wnt and YAP signaling” (Nature Communications, 2023)
Values joined by “and” are separate entries in the source; they are usually repeats but may differ in a detail not shown here. Equal values may be shown once. “Also recorded” adds a separate entry of the source.

Columns and labels:
Type in all cases: cell-based
[1] = test system: mouse intestinal organoids; experiment: cystic organoid percentage, organoids treated with recombinant Wnt ligands (Wnt3a, Wnt5a, Wnt11); conditions: for percentage of cystic organoids: Fig. 4e, individual mice, n = 3; for cystic organoids (sheet SF.5b): Wnt5a + DMSO, relative to Untreated = 0
Procedure: (§1) The jejunum part of the small intestine was removed, flushed with PBS, opened longitudinally, then cut into 0.5 cm pieces. The collected tissues were washed with ice cold PBS multiple times by vortexing and incubated in PBS containing 2.5 mM EDTA for 5 min at 37 °C. After gentle shaking and aspiration, tissues were incubated in PBS containing 5 mM EDTA for 7 min at 37 °C. Tissues were then washed with PBS to remove EDTA and vigorously shaken to release crypts. The released crypts were passed through 70 μm strainers, washed with PBS, and pelleted by centrifugation at 200 × g. Resuspended crypts were mixed with Matrigel (Corning, #356231; Lot#8218007) and pipetted into culture plates. After mixture of crypts and Matrigel solidified, IntestiCult Organoid Growth Medium (Stem Cell Technologies, #06005; Lots #1000021927, #1000034230, #1000037372) was added. Seven days after seeding, organoids were resuspended in dissociation buffer (Gentle Cell Dissociation Reagent; Stem Cell Technologies, #07174), dissociated by pipetting, and seeded for experiments.
(§2) 3-4 biological replicates of organoids from different mice were used per condition. Organoids were cultured in the indicated media, inhibitors, antibodies and/or recombinant proteins for 5 d and fixed in 4% formaldehyde in PBS. Organoids were imaged with a 4× Plan Fluor objective (NA: 0.13, Nikon) on a Nikon Ti-E inverted microscope equipped with a Neo scMOS camera (Andor, Oxford Instruments), a linear encoded automated stage (Applied Scientific Instrumentation), all run by NIS Elements software (Nikon). Organoids were imaged in brightfield and images covering the whole well were stitched and focused into one image projection with an extended depth of focus module (EDF; Nikon). One hundred to 200 organoids per replicate per condition were counted and used for quantification. The number of budding organoids in each condition was normalized by the number of budding organoids in untreated or DMSO treated controls to calculate cystic organoid percentage:1 Cysticorganoidpercentage=100×1−Numberofbuddingorganoidsfromexperiment/Numberofbuddingorganoidsfromcontrol

[2] = test system: mouse intestinal organoids; experiment: inhibition of Wnt5a-induced cystic organoids; conditions: individual mice, n = 3
Procedure: as §1, §2

[3] = test system: cytosolic Ca2+ in mouse intestinal organoids; experiment: live Ca2+ imaging of mouse intestinal organoids (GCaMP6f/tdTomato: baselined area under curve, peak number, height, width); conditions: live organoids expressing GCaMP6f
Procedure: Z stacks were acquired every 10 s.
Z-stack images were converted to mean intensity projections and, where required; background was subtracted using a rolling ball algorithm. Segmentation was conducted on a max-projection over-time of the GCaMP6f channel using Cellpose’s pre-trained “Cytoplasm” classifier. Mean intensity traces were measured in each ROI over the time course in both the GCaMP6f and TdTomato channels using scikit-image[138]. Ca^2+ oscillation patterns were calculated in an unsupervised, automated manner using MATLAB. Mean intensity traces were smoothed using a Savitzky-Golay filter and peaks were identified using the “findpeaks” algorithm from the MATLAB Signal Processing Toolbox. Graphs for GCaMP6f/tdTomato fluorescence ratio, peak numbers, peak height, peak width and baselined area under the curve were generated using Python matplotlib and seaborn packages. Statistical analysis was performed using Python SciPy and scikit-post-hoc packages.

[4] = test system: β-Catenin-dependent Wnt signaling (HEK293-TB cells); experiment: TOPbrite dual-luciferase Wnt reporter assay; conditions: SF.3e
Procedure: Generation of HEK293 cells stably expressing a TOPbrite firefly luciferase Wnt reporter and pRL-SV40 Renilla luciferase (HEK293-TB) was previously described. HEK293-TB cells were maintained in DMEM/F12 (50:50), supplemented with 10% FBS, 2 mM Glutamax (Gibco, #35050-061) and 40 μg/ml hygromycin (Cellgro, #30-240-CR). For the luciferase reporter assay, HEK293-TB cells were seeded in 96-well plates (Falcon, #353377). The next day, cells were treated with indicated Wnt ligands (50 ng/ml) or CM diluted in culture media. After 24 h, the firefly and Renilla luciferase activity was measured using Dual-Glo Luciferase Assay system (Promega, #E2940) on a Perkin Elmer EnVision multilabel reader. The ratios of firefly luminescence to Renilla luminescence were calculated and normalized to control samples that were not treated.

[5] = test system: YAP in mouse intestinal organoids; experiment: whole mount immunostaining for YAP nuclear localization
Procedure: For whole mount staining, freshly passaged crypts were mixed with Matrigel (Corning, #356231) and mounted to µ-Slide 8 well chamber slides (ibidi, #80826). Media were changed every 2–3 d. 5 days later, organoids in the chamber slides were then fixed in 4% formaldehyde in PBS for 30 min, permeabilized with 0.5% Triton X-100 for 1 h, and incubated in blocking solution (3% normal donkey serum (Sigma-Aldrich, #566460) and 5% BSA (Sigma-Aldrich, #A7979) in 0.1% Triton X-100 + PBS) for 1 h. Primary and secondary antibodies were diluted in blocking solution and added to fixed organoids. Organoids were incubated with primary antibodies overnight at 4 °C and with secondary antibodies for 2 h. ProLong Diamond Antifade Mountant (Invitrogen, # P36970) was added. Images were acquired with a Yokogawa CSU-W1/Zeiss 3i Marianas spinning disk confocal microscopy system. For each organoid, Z-planes up to 100 μm with 1 or 1.5 μm z-steps were acquired to quantify the number of cell types.

[6] = test system: mouse intestinal organoids; experiment: RNAseq of intestinal organoids; conditions: 2 days
Procedure: Total RNA was isolated using the RNeasy Plus Mini Kit (Qiagen, #74134) per manufacturer’s instructions. Total RNA was quantified with Qubit RNA HS Assay Kit (Thermo Fisher Scientific, #Q32852) and quality was assessed using RNA ScreenTape on 4200 TapeStation (Agilent Technologies, #5067-5576). cDNA library was generated from 2 ng of total RNA using Smart-Seq V4 Ultra Low Input RNA Kit (Takara, #634894). 150 pg of cDNA was used to make sequencing libraries by Nextera XT DNA Sample Preparation Kit (Illumina, #FC-131-1024). Libraries were quantified with Qubit dsDNA HS Assay Kit (Thermo Fisher Scientific, #Q32851) and the average library size was determined using D1000 ScreenTape on 4200 TapeStation (Agilent Technologies, #5067-5582). Libraries were pooled and sequenced on NovaSeq 6000 (Illumina) to generate 30 millions single-end 50-base pair reads for each sample.
Sequencing reads were filtered and aligned using HTSeqGenie v4.2.2. […] Reads within coding sequences were counted to determine an estimate of gene expression. Read counts were scaled by library size, quantile normalized and precision weights were calculated using the voom R package. […] Differential gene expression was calculated using voom+limma with multiple-hypothesis correction of P values performed using the Benjamini-Hochberg method. […]

B1: Wnt5a: recombinant protein, R&D Systems 645-WN-010 (protein)
chain: IIGAQPLCSQLAGLSQGQKKLCHLYQDHMQYIGEGAKTGIKECQYQFRHRRWNCSTVDNTSVFGRVMQIGSRETAFTYAVSAAGVVNAMSRACREGELSTCGCSRAARPKDLPRDWLWGGCGDNIDYGYRFAKEFVDARERERIHAKGSYESARILMNLHNNEAGRRTVYNLADVACKCHGVSGSCSLKTCWLQLADFRKVGDALKEKYDSAAAMRLNSRGKLVQVNSRFNSPTTQDLVYIDPSPDYCVRNESTGSLGTQGRLCNKTSEGMDGCELMCCGRGYDQFKTVQTERCHCKFHWCCYVKCKKCTEIVDQFVCK
modifications: biotin
percentage of cystic organoids ([1]; Wnt5a 25 ng/ml): 14.1026% and 5.06% and 6.32%
percentage of cystic organoids ([1]; Wnt5a 50 ng/ml): 23.3312% and 3.761% and 10.619%
percentage of cystic organoids ([1]; Wnt5a 100 ng/ml): 26.0174% and 31.7553% and 21.762%
percentage of cystic organoids ([1]; Wnt5a 250 ng/ml): 40.092% and 41.2431% and 44.3989%
percentage of cystic organoids ([1]; Wnt5a 500 ng/ml): 62.8247% and 56.8452% and 53.6325%
cystic organoids (sheet SF.5b) ([1]; replicate 1): 22.713
cystic organoids (sheet SF.5b) ([1]; replicate 2): 18.3144
cystic organoids (sheet SF.5b) ([1]; replicate 3): 19.185
cystic organoids (sheet SF.5b) ([1]; replicate 4): 14.2949
cystic organoid size ([1]; Wnt5a compared to Wnt3a): larger than those treated with Wnt3a
induction of cystic organoids ([1]; recombinant Wnt ligand added to crypt cultures): dose-dependently increased organoids with cystic morphology
percentage of cystic organoids ([2]; Fig. 4g, Wnt5a + DMSO): 46.8995% and 39.0061% and 36.0342%
percentage of cystic organoids ([2]; Fig. 4i, Wnt5a + IgG): 49.9365% and 63.1809% and 67.3433%
effect on cytosolic Ca2+ levels and oscillations [3]: cytosolic Ca^2+ levels and oscillations increased; also recorded: modulate cytosolic Ca^2+ oscillations
TOPbrite dual-luciferase Wnt reporter activity ([4]; replicate 1): 0.3121
TOPbrite dual-luciferase Wnt reporter activity ([4]; replicate 2): 0.2591
TOPbrite dual-luciferase Wnt reporter activity ([4]; replicate 3): 1.226
TOPbrite dual-luciferase Wnt reporter activity ([4]; replicate 4): 1.185
effect on nuclear localization of YAP [5]: increased nuclear localization of YAP
Ptk7-dependent DEGs with TEAD binding motifs [6]: increased expression
